We go through 138 substances from the supplement of paper PMC12042874.

± gives the uncertainty stated by the source.

The series in a line: amyloid nucleation score (Sup35N fusion, yeast selection) (log enrichment); library NNK2; higher = more nucleation; inactive = no reads after selection. In short, it runs like this: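 Output and input plasmid inserts were sequenced by Illumina after psi-negative yeast carrying Sup35N fused to peptides of 20 random codons had been induced 24 hours with 100 μM copper sulfate and grown 7 days at 30°C on medium lacking adenine and uracil. The nucleation score is the DiMSum log enrichment of output over input reads, centred on the mode score of non-aggregating sequences. Sequences with under 100 input reads were excluded.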
In the case of VFEAIMVYSFRRYFPPYGAF, the amyloid nucleation score is 2.62 ± 0.098. As for VFEYFRCPYIHNLLFFSAWL, the figure is 1.9 ± 0.19. As for VFFGPTFCFVPYVNMRCLVP, the figure is 8.082 ± 0.059.

In the case of VFFLFYTMWRLVYFEPNMKS, the amyloid nucleation score was -1.25 ± 0.62. As to VFGSVADMHM, the amyloid nucleation score entry was “inactive”. With VFKFMNMTYEYRAGKGITVH, the amyloid nucleation score result is “inactive”. As for VFLSGINH, the figure is -1.18 ± 1.1; as for VFQIHYMVGNVVCTWSWPNV, 4.27 ± 0.056. As for VFRYAGRCRNGIVGLYGATM, the figure is 4.677 ± 0.046; as for VFSNWVNVVWS, 5.172 ± 0.039. Consider VFSSFWVYKLYEFEASSNVR, for which the amyloid nucleation score was -0.371 ± 0.45. As for VFTCGVVPYPYKNTLKYKCF, the amyloid nucleation score was -0.319 ± 0.4.

Regarding VFTSFVG, the amyloid nucleation score was 0.536 ± 0.46. As for VFVEVDVTGFNFRLE, the amyloid nucleation score is -1.18 ± 0.48.

Consider VFWHMSIIHIVCRIILSKDW, for which the amyloid nucleation score entry is “inactive”. VFYCKRVAMDNTSCRNSSYL: the amyloid nucleation score is -0.536 ± 0.31.

As for VGDWVQQVVFTRRSTSSRRV, the amyloid nucleation score result is “inactive”. As for VGFISDNYYWYNPKVNGIWV, the figure is -0.834 ± 0.27.

In turn, VGFRRVTNMDRCSFSLCCCW yielded an amyloid nucleation score of 4.56 ± 0.064. As for VGHSIEALELTPIVVRYTYL, the figure is -0.341 ± 0.45; as for VGKRIVHIFCVEFGSLMGC, “inactive”; as for VGLVMHGIVLCLMLSHMSWR, 0.354 ± 0.41. In turn, VGRGASRNFSCFSLVKFREK yielded an amyloid nucleation score of 3 ± 0.062. As for VGRQSCFVYMWCWTYHMWGL, the figure is 1.37 ± 0.32.

Take VGRRSSKYESAELRVGSEVV: the amyloid nucleation score is 1.71 ± 0.12. As for VGSSRFLRDGVTRGLSMSGS, the figure is -1.07 ± 0.41. As for VGVFNFAGTTTSVGVNVSYT, the amyloid nucleation score is 2.78 ± 0.1. The substance VGVLNSIKPYLCVSAKRKCV yielded an amyloid nucleation score of 0.09 ± 0.74.

The substance VGVLSEDIYCSAQPYLGRSG displayed an amyloid nucleation score of 0.331 ± 0.4. As for VGVVGYVETSLLGLRRCG, the amyloid nucleation score was -0.976 ± 0.54. As to VGVVLFFFVLCYWVKT, the amyloid nucleation score is -0.79 ± 0.41. As for VHCCFGACGCSSWRLNLLAS, the figure is 0.092 ± 0.49; as for VHIMNSLVGSIVLGSSRRLS, 5.77 ± 0.062. Substance VHRLC showed an amyloid nucleation score of 1.38 ± 0.47. As for VHSGLYAKCVRLYMQNFPHL, the figure is 0.192 ± 0.79; as for VHTAFRETLYRRDKMLCGMR, -0.709 ± 0.63.

As to VIAVCLVLVSSDVKIGTRMG, the amyloid nucleation score amounted to 1.84 ± 0.16. Take VIGAGCIEKQRTVEAGGCRG: the amyloid nucleation score was found to be 1.23 ± 0.35. As for VIGCAQWFYFADMRGMPRNQ, the figure is 4.95 ± 0.076; as for VILAIGNFSRI, 3.08 ± 0.081. As for VILVSVASINSRCVIGFSKF, the figure is 4.64 ± 0.07. As for VILYNGFDLSGSD, the figure is 0.286 ± 0.44; as for VISHRKPFE, -0.283 ± 1; as for VITGYCA, 2.48 ± 0.094. As to VITSYVRRQCVKFCCGARCR, the amyloid nucleation score was found to be 8.347 ± 0.054.

VIWIRTIKMHACTYVQQDVL came in with an amyloid nucleation score of 0.806 ± 0.45.

Regarding VIYRSNLASRGMNHAVFSKR, the amyloid nucleation score was -0.92 ± 0.28. As for VKGVWWYRIMS, the figure is 0.785 ± 0.51. As for VKNFYNSSINGLGLYMNMRF, the figure is 2.43 ± 0.068; as for VKTKAVTRVMIP, 0.589 ± 0.35; as for VKWTTVVD, 0.963 ± 0.26. As for VKWTVNEVYGCYYCTGSVYA, the amyloid nucleation score was found to be 6.154 ± 0.042.

In the case of VKYFSYDIVGVGREYYFKTT, the amyloid nucleation score is -0.555 ± 0.76.

As to VLAHNSGWNGTKETYCMSNG, the amyloid nucleation score was -0.436 ± 0.54. As for VLCCPSKISTALKCWVGEAC, the figure is 0.233 ± 0.62. Substance VLDFQTSYMLPEFVRPGVGY gave an amyloid nucleation score of 0.216 ± 0.25. As for VLESYFDTYM, the figure is -2 ± 0.76; as for VLHRLRSLLERFLFYVDLIS, 0.355 ± 0.65.

Regarding VLITKYSFTRLEFTIKVTSS, the amyloid nucleation score was 0.386 ± 0.57. As for VLMKGRDPSVSGLKIEYLGN, the figure is 0.193 ± 0.19; as for VLMYIWDLVGGSLSFKKVLF, “inactive”. As to VLNEDVRGKANTVVSSMG, the amyloid nucleation score turned out to be 0.413 ± 0.24. As for VLNRGGETAYTSMFDVYYI, the figure is -0.097 ± 0.63; as for VLNRLERASSVREQGIIRGR, 0.252 ± 0.29.

VLPMVRMSINIVVGCWSQKL: the amyloid nucleation score came to 3.79 ± 0.081. Regarding VLPTEYSGFFSTRQLPSLDS, the amyloid nucleation score worked out at 0.137 ± 0.79. As for VLPYSRVSTS, the figure is 0.007 ± 0.28; as for VLREDSIELWPDGTVGGRTG, 1.35 ± 0.37. As for VLSLLMPVVRIVWKFN, the figure is -0.084 ± 0.76. As for VLSLSVDFSCKRSCIMDTQV, the figure is 3.95 ± 0.087; as for VLSNLIFYLSPFCIMHLMR, 3.27 ± 0.13; as for VLTALVYVEITF, 5.41 ± 0.066.

In turn, VLVGVEWFV registered an amyloid nucleation score of 0.318 ± 0.38. As for VLVSGYDLVVVDRVYLGRMF, the figure is 2.56 ± 0.085; as for VLVSLFLPLENYFG, -0.549 ± 1. As for VLWIGFYLNLYLPYLCNHVD, the figure is 3.37 ± 0.076. The substance VLYSFSGVTPWHKYPCNCV had an amyloid nucleation score of 0.256 ± 0.46. In turn, VMFEFNLAGSDSSDKAAMVT yielded an amyloid nucleation score of 0.014 ± 0.49. As for VMFWLPPTSGNSWSDCTHKI, the entry is “inactive”; as for VMIIFLDNKRYGKAPNCGRM, 7.263 ± 0.07. As for VMLGHYTVLFGVKVRECREG, the figure is 1.7 ± 0.19; as for VMRMWRVSMRF, 6.068 ± 0.032; as for VMTARHVLWSNLRVRPRGHD, 0.867 ± 0.67.

With VMYYEGG, the amyloid nucleation score was -0.561 ± 0.63. VNAPGTSYGYYVLNVQWGGW had an amyloid nucleation score of 1.12 ± 0.26.

As for VNIDGRDRDNFVNGRSIMLR, the amyloid nucleation score result is “inactive”. In turn, VNLWCRYDWGVPGDSWGRDG came in with an amyloid nucleation score of 2.92 ± 0.078. The substance VNRDRAQLWVACITCRCNFR showed an amyloid nucleation score of 8.986 ± 0.049.

VNRSTELHFIVMREMVWLKS: the amyloid nucleation score is -0.287 ± 0.62. Turning to VNRVTRPNECYACQYMFGRW, the amyloid nucleation score was 1.19 ± 0.18. As for VNSMAMLCLRICIGTHQMCG, the figure is 5.03 ± 0.054; as for VNSNINFMEGYGCFKKIVNF, -1.36 ± 0.75; as for VNVCWLKSATPNSCVDLVNI, 0.946 ± 0.6. As for VNVDWCLLSVLVFNLETNPR, the figure is 6.699 ± 0.032. As to VNVYLFYYYPHSSHCYIF, the amyloid nucleation score worked out at 7.658 ± 0.056. For VNWFRLWRTSQLLGRMMLCL, the amyloid nucleation score stood at 0.427 ± 0.56. Consider VNWLCRSWRSNRSLEG, for which the amyloid nucleation score is 4.33 ± 0.087.

As to VNYSYVATSYRLVAILSNVW, the amyloid nucleation score was -1.36 ± 0.62. As for VPEFCVSSCNSVNLRASE, the figure is 1.78 ± 0.14; as for VPGRYFSQELVFTLFLGMAK, -1.43 ± 0.61. VPKVKNLDWSSELAKFKLEV returned an amyloid nucleation score of 2.95 ± 0.1. As for VPRSQIVVGIMFP, the figure is -1.06 ± 0.55. Turning to VPSHRPFVYHRKDLGFLGSV, the amyloid nucleation score worked out at 0.269 ± 0.6. As for VPTLCLVLDRLLDSNR, the figure is -1.39 ± 0.62; as for VPVTGSNLPAVCKGHGVEYG, -0.045 ± 0.41; as for VPWLNGRVVASRKDKTRSSR, 0.009 ± 0.76. Consider VQKRRGFILTSFR, for which the amyloid nucleation score is -0.173 ± 0.39.

For the substance VQMGRPWTGALMVSYMIVNH, the amyloid nucleation score is 6.18 ± 0.063.

VQVCKMICRFISLWGLLA returned an amyloid nucleation score of 0.006 ± 0.44. For VRAQKRSWGQGSL, the amyloid nucleation score was 1.23 ± 0.14. As for VRAYLQYR, the figure is 0.094 ± 0.74. As for VREVDILYYC, the figure is 0.418 ± 0.48; as for VRFTLYGCWGLMFFTMVGR, “inactive”. VRFYVCLFLRNEMKVGRMTW registered an amyloid nucleation score of 3.86 ± 0.064. As for VRILYGS, the figure is 6.06 ± 0.082; as for VRISAMVITV, -0.684 ± 0.55.

VRIYTHWTRSYRPKFRSTWT had an amyloid nucleation score of 0.641 ± 0.74.

With VRKLSRNLMICYKTVLSGDC, the amyloid nucleation score is -0.105 ± 0.65. Substance VRLLGYIWKLLPHVVNQKV gave an amyloid nucleation score of 0.31 ± 0.46.

For VRLTMQYGHVYPGCSLLPYV, the amyloid nucleation score came to 4.75 ± 0.049. VRMWRGE registered an amyloid nucleation score of 0.083 ± 0.49. In turn, VRNFYLYVMWPWVQEFY returned an amyloid nucleation score of 7.457 ± 0.061. As for VRQRNNWFTMVIVCVISVMA, the figure is 3.52 ± 0.13; as for VRRHADRGGVLAEISNEVVQ, 0.608 ± 0.24. With VRTIF, the amyloid nucleation score result is “inactive”. As for VSAELWIQSSVTSAYIIWQL, the figure is 0.98 ± 0.81; as for VSCVCHYVNNFNPMLCNRKC, -0.064 ± 0.8; as for VSDDHFINCFYGQVSQRKVK, “inactive”.

As for VSDRLTMFKSVRSVWMCWGQ, the amyloid nucleation score is -0.146 ± 0.61. As to VSEANVTYINFFC, the amyloid nucleation score amounted to 4.36 ± 0.089. As for VSFWFVFFWMISTRSEMMDR, the figure is -1.08 ± 0.53; as for VSFYDVH, 0.011 ± 1.1.

With VSGLPN, the amyloid nucleation score result is “inactive”. As for VSGSSHVVKWVMKEGVIFI, the amyloid nucleation score result was “inactive”.

For the substance VSHILINVSRGLRGS, the amyloid nucleation score was -0.261 ± 0.8. VSIFMQRR had an amyloid nucleation score of 2.76 ± 0.13. As for VSKKFIIVVRNREFSP, the figure is 4.43 ± 0.086; as for VSLIFQIRLRHRLTGAQMKR, 0.762 ± 0.37.
